Measurements: paper PMC2199947

Target: receptor-type protein tyrosine phosphatase PTPmu (endogenous, MvLu mink lung cells) (mink (endogenous in MvLu))
Assay: co-IP

Row | percent of the cadherin cleared from the lysate by immunoprecipitation of PTPmu [%] | Substance
1 | 80 | 116-kD cadherin of MvLu cells (natural protein)
2 | 80 | 130-kD cadherin of MvLu cells (natural protein)
